The values below come from publication PMC12167710 (2024).

In assay [1] the target is recombinant human IgG1λ isotype control antibody (clone AbD00264_hIgG1) (human, UniProt P01857 = IgG part). The assay can be described thus: BLI. In general terms: In BLI a coated tip is dipped into the sample, and binding shifts an interference pattern.
Assay [2] deals with recombinant mouse IgG1κ isotype control antibody (clone P3.6.2.8.1) (mouse, UniProt P01868 = IgG part). Kind of assay: BLI.

B1: anti-human λ VHH (HuFab lambda 1) (VHH)
VHH: QVQLQDSGGGLVQPGGSLRLSCAASGFTLDYYAIGWFRQAPGKEREGVSCISSSDGSSDGYTYYADSVKGRFTISRDNAKNTVYLQMNNLKPEDTAVYYCAARLFGVATTDPSYFDSWGQGTQVTVSS
As for B1, in assay [1], the koff is 0.000246 s⁻¹.

B2: anti-mouse κ VHH (TP1170) (VHH)
VHH: QVQLVESGGGWVQPGGSLRLSCAASGFTFSDTAMMWVRQAPGKGREWVAAIDTGGGYTYYADSVKGRFTISRDNAKNTLYLQMNSLKPEDTARYYCAKTYSGNYYSNYTVANYGTTGRGTLVTVSS
For the molecule B2, the koff in assay [2] stood at 1.18e-05 s⁻¹.

As usually defined, the koff is the rate constant with which the complex falls apart.
